The target of assay [1] is Rap1 (mouse (endogenous in immortalized murine lung endothelial cells)) (UniProt P62835). Description: proximity ligation; Duolink PLA read by flow cytometry; immortalized murine lung endothelial cells in suspension, in the dark or with blue light for the indicated times, rabbit anti-SHANK3 and mouse anti-Rap1; signal as fold over a sample without primary antibodies; cells with SHANK3 shRNA as control.

For assay [2] the target is unchanged. The assay is described as follows: proximity ligation; Duolink PLA read by flow cytometry; immortalized mouse endothelial cells expressing CIBN–GFP–CAAX and CRY2–mCherry–talin, in the dark or with blue light for 30 min at room temperature, fixed, permeabilized, stained with rabbit anti-mCherry and mouse anti-Rap1; with or without overexpressed mAzurite–FLAG–WT SPN. For orientation: Flow cytometry measures light scatter and fluorescence of single cells or particles in a stream.

Sequence of UniProt P62835 (P62835 whole entry): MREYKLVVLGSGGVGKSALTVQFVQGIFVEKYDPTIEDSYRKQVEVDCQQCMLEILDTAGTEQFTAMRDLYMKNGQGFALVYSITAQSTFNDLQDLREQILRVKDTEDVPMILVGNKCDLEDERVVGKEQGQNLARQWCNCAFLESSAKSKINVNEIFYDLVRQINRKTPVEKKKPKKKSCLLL

In assay [1], “SH3 and multiple ankyrin repeat domains 3 (SHANK3) (from UniProt Q4ACU6 1-1730) (natural protein)” registered a PLA signal, fold over the same cells expressing SHANK3 shRNA of 3 fold.
In turn, “mAzurite–FLAG–WT SPN (wild-type SPN domain of SHANK3) (domain or fragment)” had a percent reduction of the PLA signal of m1 with m2 in assay [2] of 70%.
As to “CRY2–mCherry–talin (full-length mouse talin-1) (from UniProt P26039 1-2541) (natural protein)”, the increase of the PLA signal with blue light over dark in assay [2] was 10%. This substance also registered a percent reduction of the PLA signal of m4 with m2 after 30 min of blue light in assay [1] of 40%.

Source of the values: PMC11928058.
